Measurements from publication PMC11589706, “Cryo-EM structure of PML RBCC dimer reveals CC-mediated octopus-like nuclear body assembly mechanism” (Cell Discovery, 2024).

Assays:
[1] = biological target: the molecule itself; experiment: SEC; analytical size exclusion on Superdex 200 Increase 10/300 GL in 20 mM HEPES, pH 7.4, 100 mM NaCl, 4% glycerol; all truncations N-terminally fused to MBP
[2] = biological target: the molecule itself; experiment: two-hybrid; CheckMate mammalian two-hybrid (Promega) in HeLa Pml-/- cells; pG5-luc, pBIND-PML and pACT-PML at 1:1:1; dual-luciferase read-out 24 h after transfection; normalised to pACT vector:pBIND-PML = 1

Row | Protein | binding result [1] | percent reduction of PML self-interaction (relative luciferase activity) compared to control [2] [%]
1 | MBP-PML_(46–323) (domain or fragment, human, UniProt P29590 46-323, looked up, PML (TRIM19), human, residues 46-323; source: E. coli BL21(DE3), purified; not shown: MBP, N-terminal, kept) PASEEEFQFLRCQQCQAEAKCPKLLPCLHTLCSGCLEASGMQCPICQAPWPLGADTPALDNVFFESLQRRLSVYRQIVDAQAVCTRCKESADFWCFECEQLLCAKCFEAHQWFLKHEARPLAELRNQSVREFLDGTRKTNNIFCSNPNHRTPTLTSIYCRGCSKPLCCSCALLDSSHSELKCDISAEIQQRQEELDAMTQALQEQDSAFGAVHAQMHAAVGQLGRARAETEELIRERVRQVVAHVRAQERELLEAVDARYQRDYEEMASRLGRLDAVL | binds | 
2 | MBP-PML_(46–287) (domain or fragment, human, UniProt P29590 46-287, looked up, PML (TRIM19), human, residues 46-287; source: E. coli BL21(DE3), purified; not shown: MBP, N-terminal, kept) PASEEEFQFLRCQQCQAEAKCPKLLPCLHTLCSGCLEASGMQCPICQAPWPLGADTPALDNVFFESLQRRLSVYRQIVDAQAVCTRCKESADFWCFECEQLLCAKCFEAHQWFLKHEARPLAELRNQSVREFLDGTRKTNNIFCSNPNHRTPTLTSIYCRGCSKPLCCSCALLDSSHSELKCDISAEIQQRQEELDAMTQALQEQDSAFGAVHAQMHAAVGQLGRARAETEELIRERVRQVV | binds | 
3 | full-length PML L240R, mammalian two-hybrid fusions (natural protein, human, UniProt P29590-5 1-633, looked up, PML (TRIM19) isoform IV, full length, L240R; source: HeLa Pml-/- cells, transfected, mammalian two-hybrid fusion) MEPAPARSPRPQQDPARPQEPTMPPPETPSEGRQPSPSPSPTERAPASEEEFQFLRCQQCQAEAKCPKLLPCLHTLCSGCLEASGMQCPICQAPWPLGADTPALDNVFFESLQRRLSVYRQIVDAQAVCTRCKESADFWCFECEQLLCAKCFEAHQWFLKHEARPLAELRNQSVREFLDGTRKTNNIFCSNPNHRTPTLTSIYCRGCSKPLCCSCALLDSSHSELKCDISAEIQQRQEERDAMTQALQEQDSAFGAVHAQMHAAVGQLGRARAETEELIRERVRQVVAHVRAQERELLEAVDARYQRDYEEMASRLGRLDAVLQRIRTGSALVQRMKCYASDQEVLDMHGFLRQALCRLRQEEPQSLQAAVRTDGFDEFKVRLQDLSSCITQGKDAAVSKKASPEAASTPRDPIDVDLPEEAERVKAQVQALGLAEAQPMAVVQSVPGAHPVPVYAFSIKGPSYGEDVSNTTTAQKRKCSQTQCPRKVIKMESEEGKEARLARSSPEQPRPSTSKAVSPPHLDGPPSPRSPVIGSEVFLPNSNHVASGAGEAEERVVVISSSEDSDAENSSSRELDDSSSESSDLQLEGPSTLRVLDENLADPQAEDRPLVFFDLKIDNESGFSWGYPHPFLI |  | 83.9
4 | full-length PML V123R/L178R, mammalian two-hybrid fusions (natural protein, human, UniProt P29590-5 1-633, looked up, PML (TRIM19) isoform IV, full length, V123R and L178R; source: HeLa Pml-/- cells, transfected, mammalian two-hybrid fusion) MEPAPARSPRPQQDPARPQEPTMPPPETPSEGRQPSPSPSPTERAPASEEEFQFLRCQQCQAEAKCPKLLPCLHTLCSGCLEASGMQCPICQAPWPLGADTPALDNVFFESLQRRLSVYRQIRDAQAVCTRCKESADFWCFECEQLLCAKCFEAHQWFLKHEARPLAELRNQSVREFRDGTRKTNNIFCSNPNHRTPTLTSIYCRGCSKPLCCSCALLDSSHSELKCDISAEIQQRQEELDAMTQALQEQDSAFGAVHAQMHAAVGQLGRARAETEELIRERVRQVVAHVRAQERELLEAVDARYQRDYEEMASRLGRLDAVLQRIRTGSALVQRMKCYASDQEVLDMHGFLRQALCRLRQEEPQSLQAAVRTDGFDEFKVRLQDLSSCITQGKDAAVSKKASPEAASTPRDPIDVDLPEEAERVKAQVQALGLAEAQPMAVVQSVPGAHPVPVYAFSIKGPSYGEDVSNTTTAQKRKCSQTQCPRKVIKMESEEGKEARLARSSPEQPRPSTSKAVSPPHLDGPPSPRSPVIGSEVFLPNSNHVASGAGEAEERVVVISSSEDSDAENSSSRELDDSSSESSDLQLEGPSTLRVLDENLADPQAEDRPLVFFDLKIDNESGFSWGYPHPFLI |  | 33.1
5 | full-length PML L178R, mammalian two-hybrid fusions (natural protein, human, UniProt P29590-5 1-633, looked up, PML (TRIM19) isoform IV, full length, L178R; source: HeLa Pml-/- cells, transfected, mammalian two-hybrid fusion) MEPAPARSPRPQQDPARPQEPTMPPPETPSEGRQPSPSPSPTERAPASEEEFQFLRCQQCQAEAKCPKLLPCLHTLCSGCLEASGMQCPICQAPWPLGADTPALDNVFFESLQRRLSVYRQIVDAQAVCTRCKESADFWCFECEQLLCAKCFEAHQWFLKHEARPLAELRNQSVREFRDGTRKTNNIFCSNPNHRTPTLTSIYCRGCSKPLCCSCALLDSSHSELKCDISAEIQQRQEELDAMTQALQEQDSAFGAVHAQMHAAVGQLGRARAETEELIRERVRQVVAHVRAQERELLEAVDARYQRDYEEMASRLGRLDAVLQRIRTGSALVQRMKCYASDQEVLDMHGFLRQALCRLRQEEPQSLQAAVRTDGFDEFKVRLQDLSSCITQGKDAAVSKKASPEAASTPRDPIDVDLPEEAERVKAQVQALGLAEAQPMAVVQSVPGAHPVPVYAFSIKGPSYGEDVSNTTTAQKRKCSQTQCPRKVIKMESEEGKEARLARSSPEQPRPSTSKAVSPPHLDGPPSPRSPVIGSEVFLPNSNHVASGAGEAEERVVVISSSEDSDAENSSSRELDDSSSESSDLQLEGPSTLRVLDENLADPQAEDRPLVFFDLKIDNESGFSWGYPHPFLI |  | 44.9
6 | full-length PML L247R, mammalian two-hybrid fusions (natural protein, human, UniProt P29590-5 1-633, looked up, PML (TRIM19) isoform IV, full length, L247R; source: HeLa Pml-/- cells, transfected, mammalian two-hybrid fusion) MEPAPARSPRPQQDPARPQEPTMPPPETPSEGRQPSPSPSPTERAPASEEEFQFLRCQQCQAEAKCPKLLPCLHTLCSGCLEASGMQCPICQAPWPLGADTPALDNVFFESLQRRLSVYRQIVDAQAVCTRCKESADFWCFECEQLLCAKCFEAHQWFLKHEARPLAELRNQSVREFLDGTRKTNNIFCSNPNHRTPTLTSIYCRGCSKPLCCSCALLDSSHSELKCDISAEIQQRQEELDAMTQARQEQDSAFGAVHAQMHAAVGQLGRARAETEELIRERVRQVVAHVRAQERELLEAVDARYQRDYEEMASRLGRLDAVLQRIRTGSALVQRMKCYASDQEVLDMHGFLRQALCRLRQEEPQSLQAAVRTDGFDEFKVRLQDLSSCITQGKDAAVSKKASPEAASTPRDPIDVDLPEEAERVKAQVQALGLAEAQPMAVVQSVPGAHPVPVYAFSIKGPSYGEDVSNTTTAQKRKCSQTQCPRKVIKMESEEGKEARLARSSPEQPRPSTSKAVSPPHLDGPPSPRSPVIGSEVFLPNSNHVASGAGEAEERVVVISSSEDSDAENSSSRELDDSSSESSDLQLEGPSTLRVLDENLADPQAEDRPLVFFDLKIDNESGFSWGYPHPFLI |  | 75.8
7 | full-length PML I279R, mammalian two-hybrid fusions (natural protein, human, UniProt P29590-5 1-633, looked up, PML (TRIM19) isoform IV, full length, I279R; source: HeLa Pml-/- cells, transfected, mammalian two-hybrid fusion) MEPAPARSPRPQQDPARPQEPTMPPPETPSEGRQPSPSPSPTERAPASEEEFQFLRCQQCQAEAKCPKLLPCLHTLCSGCLEASGMQCPICQAPWPLGADTPALDNVFFESLQRRLSVYRQIVDAQAVCTRCKESADFWCFECEQLLCAKCFEAHQWFLKHEARPLAELRNQSVREFLDGTRKTNNIFCSNPNHRTPTLTSIYCRGCSKPLCCSCALLDSSHSELKCDISAEIQQRQEELDAMTQALQEQDSAFGAVHAQMHAAVGQLGRARAETEELRRERVRQVVAHVRAQERELLEAVDARYQRDYEEMASRLGRLDAVLQRIRTGSALVQRMKCYASDQEVLDMHGFLRQALCRLRQEEPQSLQAAVRTDGFDEFKVRLQDLSSCITQGKDAAVSKKASPEAASTPRDPIDVDLPEEAERVKAQVQALGLAEAQPMAVVQSVPGAHPVPVYAFSIKGPSYGEDVSNTTTAQKRKCSQTQCPRKVIKMESEEGKEARLARSSPEQPRPSTSKAVSPPHLDGPPSPRSPVIGSEVFLPNSNHVASGAGEAEERVVVISSSEDSDAENSSSRELDDSSSESSDLQLEGPSTLRVLDENLADPQAEDRPLVFFDLKIDNESGFSWGYPHPFLI |  | 73.7
8 | full-length PML F177R, mammalian two-hybrid fusions (natural protein, human, UniProt P29590-5 1-633, looked up, PML (TRIM19) isoform IV, full length, F177R; source: HeLa Pml-/- cells, transfected, mammalian two-hybrid fusion) MEPAPARSPRPQQDPARPQEPTMPPPETPSEGRQPSPSPSPTERAPASEEEFQFLRCQQCQAEAKCPKLLPCLHTLCSGCLEASGMQCPICQAPWPLGADTPALDNVFFESLQRRLSVYRQIVDAQAVCTRCKESADFWCFECEQLLCAKCFEAHQWFLKHEARPLAELRNQSVRERLDGTRKTNNIFCSNPNHRTPTLTSIYCRGCSKPLCCSCALLDSSHSELKCDISAEIQQRQEELDAMTQALQEQDSAFGAVHAQMHAAVGQLGRARAETEELIRERVRQVVAHVRAQERELLEAVDARYQRDYEEMASRLGRLDAVLQRIRTGSALVQRMKCYASDQEVLDMHGFLRQALCRLRQEEPQSLQAAVRTDGFDEFKVRLQDLSSCITQGKDAAVSKKASPEAASTPRDPIDVDLPEEAERVKAQVQALGLAEAQPMAVVQSVPGAHPVPVYAFSIKGPSYGEDVSNTTTAQKRKCSQTQCPRKVIKMESEEGKEARLARSSPEQPRPSTSKAVSPPHLDGPPSPRSPVIGSEVFLPNSNHVASGAGEAEERVVVISSSEDSDAENSSSRELDDSSSESSDLQLEGPSTLRVLDENLADPQAEDRPLVFFDLKIDNESGFSWGYPHPFLI |  | 45.1
9 | full-length PML V123R/F177R, mammalian two-hybrid fusions (natural protein, human, UniProt P29590-5 1-633, looked up, PML (TRIM19) isoform IV, full length, V123R and F177R; source: HeLa Pml-/- cells, transfected, mammalian two-hybrid fusion) MEPAPARSPRPQQDPARPQEPTMPPPETPSEGRQPSPSPSPTERAPASEEEFQFLRCQQCQAEAKCPKLLPCLHTLCSGCLEASGMQCPICQAPWPLGADTPALDNVFFESLQRRLSVYRQIRDAQAVCTRCKESADFWCFECEQLLCAKCFEAHQWFLKHEARPLAELRNQSVRERLDGTRKTNNIFCSNPNHRTPTLTSIYCRGCSKPLCCSCALLDSSHSELKCDISAEIQQRQEELDAMTQALQEQDSAFGAVHAQMHAAVGQLGRARAETEELIRERVRQVVAHVRAQERELLEAVDARYQRDYEEMASRLGRLDAVLQRIRTGSALVQRMKCYASDQEVLDMHGFLRQALCRLRQEEPQSLQAAVRTDGFDEFKVRLQDLSSCITQGKDAAVSKKASPEAASTPRDPIDVDLPEEAERVKAQVQALGLAEAQPMAVVQSVPGAHPVPVYAFSIKGPSYGEDVSNTTTAQKRKCSQTQCPRKVIKMESEEGKEARLARSSPEQPRPSTSKAVSPPHLDGPPSPRSPVIGSEVFLPNSNHVASGAGEAEERVVVISSSEDSDAENSSSRELDDSSSESSDLQLEGPSTLRVLDENLADPQAEDRPLVFFDLKIDNESGFSWGYPHPFLI |  | 39.1
10 | full-length PML V123R, mammalian two-hybrid fusions (natural protein, human, UniProt P29590-5 1-633, looked up, PML (TRIM19) isoform IV, full length, V123R; source: HeLa Pml-/- cells, transfected, mammalian two-hybrid fusion) MEPAPARSPRPQQDPARPQEPTMPPPETPSEGRQPSPSPSPTERAPASEEEFQFLRCQQCQAEAKCPKLLPCLHTLCSGCLEASGMQCPICQAPWPLGADTPALDNVFFESLQRRLSVYRQIRDAQAVCTRCKESADFWCFECEQLLCAKCFEAHQWFLKHEARPLAELRNQSVREFLDGTRKTNNIFCSNPNHRTPTLTSIYCRGCSKPLCCSCALLDSSHSELKCDISAEIQQRQEELDAMTQALQEQDSAFGAVHAQMHAAVGQLGRARAETEELIRERVRQVVAHVRAQERELLEAVDARYQRDYEEMASRLGRLDAVLQRIRTGSALVQRMKCYASDQEVLDMHGFLRQALCRLRQEEPQSLQAAVRTDGFDEFKVRLQDLSSCITQGKDAAVSKKASPEAASTPRDPIDVDLPEEAERVKAQVQALGLAEAQPMAVVQSVPGAHPVPVYAFSIKGPSYGEDVSNTTTAQKRKCSQTQCPRKVIKMESEEGKEARLARSSPEQPRPSTSKAVSPPHLDGPPSPRSPVIGSEVFLPNSNHVASGAGEAEERVVVISSSEDSDAENSSSRELDDSSSESSDLQLEGPSTLRVLDENLADPQAEDRPLVFFDLKIDNESGFSWGYPHPFLI |  | 18.5
